In the RNAGym collection of RNA variant scans (doi:10.1073/pnas.2313332121):

B1: TPR t1 (parent)
chain: GACCAAUCUGCCCUCAGAGCUCGAGAACAUCUUCGGAUGCAGAGGAGGCAGGCUUCGGUGGCGCGAUAGCGCCAACGUCCUCAACCUCCAAUGCAUCCCACCACAUGAUGAUGCCUGAAGAGCCUUGGUUUUUUG

Variants of: B1
Experiment: polymerase ribozyme fitness, log enrichment relative to wild type (log ratio); higher = more active; in vitro selection for triplet polymerase activity
How it was run: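 Fitness measures genotype enrichment against wild-type enrichment on a logarithmic scale, with inverse-variance-weighted averaging of replicates. The logarithm is base 2, and genotypes were kept only with ≥10 input reads and ≥1 read per output in Illumina sequencing. The sequenced libraries came from one triplicate in vitro selection round, including frozen incubation at −7 °C, of PCR-built, transcribed mutant libraries of each subunit of a heterodimeric triplet polymerase ribozyme.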

Variant	polymerase ribozyme fitness (log ratio)
GACCAUUCUGCCCUCAGAGCUCGAGAACAUCUUCGGAUGCAGAGGAGGCAGGUUUCGGUGGCGCGAUAUCGCCAACGUCCUCAACCUCCAAUGCAUCCCACCACAUGAUGAUGCCUGAAGAGCCUUGCUUUUUUG [A6U C53U G69U G128C]	-0.945
GACUAAUGUGCCCUCAGAGCUCGAGAACAUCUUCGUAAGCAGAUGAGGCAGGCUUCGGUGGCGCGAUAGCGCCAACGUCCUCAACCUCCAAUGCAUCCCACCACAUGAUGAUGCCUGAAGAGCAUUGGUUUUUUG [C4U C8G G36U U38A G44U C124A]	-5.08
GACCAAUCUGCCCUCAGAGCUCGAGAACAUCUUCGGAUGCAGAGGAGGCAGGCUUCGGUGGCGCGAUAGCGCCAACGUCCUCCACCUCCAAUGCAUCCCACCACAUGAUGAUGCCUGAAGAGCCUCGGUUUUUUG [A83C U126C]	-1.26
GACCAAUCUGCCCUCAGCGCUCGAGAACAUCUUCGGAUGCAGAGGAGGCAGGCUUCGGUGGCGCGAUAGCGCCAACGUCCUCAACCUCCAAUGCAUCCCACCACAUGAUGACGCCUGAAGAGCCUUGGUUUUUUG [A18C U112C]	-0.328
GACCAAUCUGCCCUCAGAGCUCGUGAACAUCUUCGGAUGCAGAGGAGGCAGGCUUCGGUGACGCGAUAGCGCCAACGUCCUCAACCUCCAAUGCAUCCCACCACAUGAUGAUGCCUGAAGAGCCUUGGUUUUUUG [A24U G61A]	-5.9
GACCAAUCUGCCUUCAGAGCUCGAGAACAUCUUUGGAUGCAGAGGAGGCAGGCUUCGGUGGCGCGAUAGCGCCAACGUCCUCAACCUCCAAUGCAUCCCACCACAUGAUGAUGCCUGAAGAGCCUUGGUUUUUUG [C13U C34U]	-4.26
GACCAAUCUGCCCUCAGAGCUCGAGAACAUCUUCGGAUGCAGAGGAGGCAGGCUUCGGUGGCGCGAUAGCGCCAACGUCCUCUACCUCCAAUGCAUCCCAGCACAUGAUGAUGCCUGAAGAGCCUUGGUUUUUUG [A83U C101G]	-1.74
GACCAAUCGGCCCUCAGAGCUCGAGAACAUCUUCGGAUGCAGAGGAGGCACGCUUCGGUGUCGCGAUAGCGCCAACGUCCUCAACCUCCAAUGCAUCCCACCACAUGAUGAUGCCUGAAGAGCCUUCGUUUUUUG [U9G G51C G61U G127C]	-3.3
GACCCAUAUGCCCUCAGAGCUCGAGAACAUCUUCGGCUGCAUAGGAGGCAGGCUUCGGUGGCGCGAUAGCGCCAACGUCCUCAACCUCCAAUGCAUCCCACCAUAUGAUGAUGCCUGAAGAGCCUUGGUUUUUUG [A5C C8A A37C G42U C104U]	-2.13
GACCAAUCUGCCCUCAGAGCUCGAGAACAUCUUCGGAUGCAGAGGAGGCAGGUUUCGGUGGCGCGAUAGCACAAACCUCUUCAACCUCCAAUGCAUCCCACCACAUGAUGAUGCCUGAAGAGCCUUGGUUUUUUG [C53U G71A C73A G77C C80U]	-6.09
GACCAAUCUGCCCUUAGAGCUCGAGAACAUCUUCGGAUGCAGAGGAGGCAGUCUUCGGUGACGCGAUAGCGCCAACGUCCUCAACCUCCAAUGCAUCUCACCACAUGAUGAUGCCUGAAGAGCCAUGGUUAUUUG [C15U G52U G61A C98U U125A U131A]	-3.15
GGCCAAUCUGCCGUCAGAGCUCGAGAACAUCUUCGGAUGCAGAGGAGGCAGGCUUCGGUGGCGCGAUAGCGCCAACGUCCUCAACUUCCAAUGCAUCCCACCACAUGAUGAUGCCUGAAGAGACUUGGUUUUCUG [A2G C13G C86U C123A U133C]	0.0468
GACCAAUCUGCCCUUAGGGCUCGAGAACAUCUUCGGGUGCAGAGGAGGCAGGCAUCGGUGGCGCCAUAGCGCCAACGUCCUCAACCUCCAAUGCAUCCCUCCACAUGAUGAUGCAUGAAGAGCCUUGGUUUUUUG [C15U A18G A37G U54A G65C A100U C115A]	-5.35
GACCAAUCUGCCCUCAGAGCUCGAGAACAUCUUCGGAUGCAGAGGAGGCAGGCUUGGGUGGCGCGAUAGCGCCAACGUCCUCAACCUCCAAUACAUCCCACCACAUGAUGAUGCAUGAAGAGUCUUGUUUUUUUG [C56G G93A C115A C123U G128U]	-4.6
GACCAAUCUGCCCUCAGAGCUCGAGAACAUCUUCGGAUGCAGAGGAGGCAGGCUUCGGUGGCGCGAUAGCGCCAACGUCCUCAACCUCCAAUGCAUCUCACCACAUGAUGAUGCCUGAAGAGCCGUGGUUUUUUG [C98U U125G]	-2.35
GACCUGUCUGCCCUCAGAGCUCGAGAACAUCUUCGGAUGCAGAGGAGGCAGGCUUCGGUGGCGCGAUAGCGCCAACGUCCUCAACAUCCAAUGCAUCCCACAACAUGAUGAUGCCUGAAGAGCCUUGGUUUUUUG [A5U A6G C86A C102A]	-3.72
GACCAAUCUGCCCUCAGAGCUCGAGAACAUCUUCGGAUGCAGAGGAGGUAGGCUUCGGUGGCGCGAUAGCGCCAACGUCCUCAACCUCCAAUGCAUCCCACCACAUGAUGAUGCCUGAAGAGCCUUGGUUUUUUC [C49U G135C]	-0.277
GACCAAUCUGCCCUCUGUGCUCGAGAACAUCUUCGGAUGCAGAGGAGGCAGGCUUCGGUGGCGCGAUAGCGCCAACGUCCUCAACCUCCAAUGCAUCCCACCACAUGAUGAUGCCUGAAGAGCCUUGGUUUUAUG [A16U A18U U133A]	-4.63
GACCAAUCUACCCUCAGAGCUCGAGAACAUCUUCGGAUGCAGAGGAGGCAGGCUUCGGUGGCGCGAUAGCGCCAACGUCCUCCACCUCCAAUGCAUCCCACCACAUGAUCAUGCCUGAAGAGCCUUGGUUUUAUG [G10A A83C G110C U133A]	-3.93
GACCAAUCUGCCCUCAGAGCUCGAGAACAUCUUCGGAUUCAGAGGAGGCAGGAUUCGGUGGCUCGAUAGCGCCAACGUCCUCAACCUCCAAUGCAUCCCACCACAUGAUGAUGCCUGAAGAGCCUAGGUUUUUUG [G39U C53A G63U U126A]	-5.66
GACCAAUCUGCCCUCAGAGCUCGAGAACAUCUUCGGAUGCAGAGGAGACAGGCUUCGGUGGCGCGAUAGCGCCAACGUCUUCAACCUCCAAUGCAACCCACCACAUGAUGAUGUCUGAAGAGCCUUGGUUUUUUG [G48A C80U U96A C114U]	-3.73

Variant	polymerase ribozyme fitness (log ratio)
GACCAAUCUGCGCUCAGAGCUCGAGGACAUCUUCGGAUGCAGAGGAGGCAGGCUUCGGUGGCGCGAUAGCGCCAACGUCCUCAACCUCCAAUGCAUCCCACCACAUGAUGAUGCCUGAAGAGCCUUGGUUUUUUG [C12G A26G]	-1.93
GACCAAUCUGCCCUCAGAGUUCGAGAACAUCUUCGGAUGCAGAGGAGGCAGGCUUCGGUGACGCGAUAGCGCCAACGUCCUCAACCUCCAAUGCAUCCCACCACAUGAUGAUGCCUGAAGAGCAUUGGUUUUUUC [C20U G61A C124A G135C]	0.689
GACCAAUCUGCCCUCAGAGCUCGAGAACAUCUUCGGAUGCAGAGGAGGCAGGCUUCGGUGCCGCGAUAGCGCCAACGUCCUCAACCUCCAAUGCAUCCCACCACAUGAUGAUGCCUGAAGAGCGUUGGUUUUUUG [G61C C124G]	-0.476
GACCAAUCUGCCCUCAGAGCUCGAGAACAUCUUCGGAUGCAGAGGAGGCAGGCUUCGGUGGCACGAUAGCGCCAACGUCCUCAACCUCCAAUGCAUCCCACCACAUAAUGAUGCCUGAAGAGCCUUGGUUUUUUG [G63A G107A]	-6.55
GACCAAUCUGCCCUCAGAGCUCGAGAACAUCUUCGGAUGCAGAGGAGGCAGGCUUCGAUGGCGCGAUAGCGCAAACGUCCUCAGCCUCCAAUGCAUCCCACCGCAUGAUGAUGCCUGAAGAGCGUUGGUUUUUUG [G58A C73A A84G A103G C124G]	-7.11
GACCAAUCUGCCCUCAGAGCUCGAGAACAUCUUCGGAUGCAGAGGAGGCAGGCUUCGGUGGCGCGAUAGCGCCAACGUCCUCAACCUCCAAUGCAUCCCACCACAUGAUGAUGCCUGAAUAGCCUUGGUUUUUUG [G120U]	0.195
GAACAAUCUGCCCUUAGAGCUCGAGAACAUCUUCGGAUGUAGAGGAGGCAGGCUUCGGUGGCGCGAUAGCGCCAACGUCCUCAACCUUCAAUGCAUCCCACCACAUGAUGAUGCCUGAAGAGCCUUGGUUUUUUG [C3A C15U C40U C88U]	-3.42
GAUCAAUCUGCCCUCAGAGCUCGAGAACAUCUUCGGAUGCAGAGGAGGCGGGCUGCGGUGGCACGAUAGCGCCAACGUCCUCAACCUCCAAUGCAUCCCACCACAUGAUGAUGCCUGAAGAGCCUUGGUUUUUUG [C3U A50G U55G G63A]	-1.45
GACCAAUCAGCCCUCAGAGCGCGAGAACAUCUUCGGAUGCUGAGAAGGCAGGCUUCGGUGGCGCGAUAGCGCCAACGUCCUCAACCUCCAAUGCAUCCCACCACAUGAUGAUGCCUGAAGAGCCUUGGUUUUUUG [U9A U21G A41U G45A]	-4.48
GACCAAUCUGCCCUCAGAGCUCGAGAACAUCUUCGGAUGCAGAGGAGGCAGGCUUCGGUGGCGUGAUAGCGCCAACGGCCUCAACCUCCAAUGCAUCCCACCACAUGAUGAUGCCUGAAGAGCCUUGGUUUUUUG [C64U U78G]	-0.112
GACAAAGCUGCCCUCAGAGCUCGAGAACAUCUUCGGAUGCAGAGGAGGCAGGCUUCGGUGGCGCGAUACCGCCAACGUCCUCAACCUCCCAUGCAUCCCACCACAUGAUGACGCCUGAAGAGUCUUGGUUUUUUG [C4A U7G G69C A90C U112C C123U]	-3.35
GACCAAUCUGCCCUCAGAGCUCGAGAACAUCUUCGGAUGCAGAGGAGGCAGGCUUCGGUGGCGCGAUAGGGCCAACGUCCUCAACCUCCAAUGCAUCCCACCACAUGAUGAUGCCUGAAGAGGCUUGGUUUUUUG [C70G C123G]	-0.392
GACCAAUCUGCCCUCAGAGCUCGAGAACAUCUUCGGAUGCAGAGGAGGCAGGCUUCGGUGGGGCGAUAGCGCCAACGUCCUCAACCUCCAAUGCAUCCCACCACAUGAUGAUGCCUGAAGAUCCUUGGUUUUUUG [C62G G122U]	-1.08
GGCCAAUCUGCCCUCAGAGCUCGAGAACAUCUUCGGAUGCAGAGGAGGCAGGCUGCGGUGGCGCGAUAGCGCCAACGUCCUCAACCUCCAAUGCAUCCCACCACAUGAUGAUGCCUGAAGAGCCUUGGUUUUUUU [A2G U55G G135U]	-1.42
GACCAAUCUGCCCUCAGAGCUCGAGAAGAUCUUGGGAUGCAGAGGAGGCAGGCUUCGGUGGCGCGAUAGCGCCAACGUCCUCAACCUCCAAUGCAUCCCACCACAUGAUAAUGCCUUAAGAGCCUUGGUUUUUUG [C28G C34G G110A G117U]	-5.7
GACCAAUCUGCCCUCAGAGCUCGAGAACAUCUUCGGAUGCAGAGGAGGCAGGCUUCGGUGGCGCGAUAGCUCCAACGUCCUCAACCUCCAAUGCAUCCCACCACAUGAUGAUGCCUGAACAGCCUUGGUUUUUUG [G71U G120C]	0.378
GACCAAUCGGCCCUCAGAGCUCGAGAACAUCUUCGGAUGCAGAGGAGGCAGGCUUCGGUGGCGCGAUAGCGCCAACGUCCUCAACCUCUAAUGCAUCCCACCACAUGAUGAUGCCUGAAGAGCCUUGGUUUUUUG [U9G C89U]	0.304
GACCAAUCUGCCCUCAGAGCUCGAGAACAUCUUCGGAUGCAGAGGAGGCAGGCUUCGGUGGCGCGAUAGCGCCAACGUCCUCAACCUCCAAUGCAUUCCACCACAUGAUGAUGCCGGAAGAGCCUUGGUUUUUUG [C97U U116G]	-2.81
GACCAAUCUGCCCUCAGAGCUCGAGAACAUCUUCGCAUGCAGAGGAGGCAGGCUUCGGUGGCGCGAUAACGCCAACGUCCUCAACCUCCAAUGCAUCCCACCACAUGAUGAGGCCUAAAGAGCCUUGGUUUUUUG [G36C G69A U112G G117A]	-6.31
GCCUAAUCAGCCCUCAGAGCUCGAGAACAUCUUCGGAUGCAGAGGAGGCAGGCUUCGGUGGCGCGAUAGCGCCAAUGUCCUCAACCUCCAAUGCAUCCCACCACAUGAUGAUGCCUGAAGAGCCUUGGUUUUUUG [A2C C4U U9A C76U]	-0.884
GACCAAUCUGCCCUCAGAGCUCGAGAACAUCUUCGGAUGCAGAGGAGGCAGGCUUCGGUGGCGCGAUAGCGCCAACGUCCUCAACCUCCAAUGCAUCCCACCACAUGAUGAUGCCUGAAGAGCCUUGGUUUUAUG [U133A]	-0.252
